Km data for one protein are collected here from article PMC8103790.

Substrate in this data set: CCCCC/C=C\C/C=C\C/C=C\C/C=C\CCCC(=O)O
The data set is described as follows: purified protein. Particulars: heme cyclooxygenase channel.

B1: wild-type human COX-2 (huCOX-2) (Homo sapiens) (protein)
chain: ANPCCSHPCQNRGVCMSVGFDQYKCDCTRTGFYGENCSTPEFLTRIKLFLKPTPNTVHYILTHFKGFWNVVNNIPFLRNAIMSYVLTSRSHLIDSPPTYNADYGYKSWEAFSNLSYYTRALPPVPDDCPTPLGVKGKKQLPDSNEIVEKLLLRRKFIPDPQGSNMMFAFFAQHFTHQFFKTDHKRGPAFTNGLGHGVDLNHIYGETLARQRKLRLFKDGKMKYQIIDGEMYPPTVKDTQAEMIYPPQVPEHLRFAVGQEVFGLVPGLMMYATIWLREHNRVCDVLKQEHPEWGDEQLFQTSRLILIGETIKIVIEDYVQHLSGYHFKLKFDPELLFNKQFQYQNRIAAEFNTLYHWHPLLPDTFQIHDQKYNYQQFIYNNSILLEHGITQFVESFTRQIAGRVAGGRNVPPAVQKVSQASIDQSRQMKYQSFNEYRKRFMLKPYESFEELTGEKEMSAELEALYGDIDAVELYPALLVEKPRPDAIFGETMVEVGAPFSLKGLMGNVICSPAYWKPSTFGGEVGFQIINTASIQSLICNNVKGCPFTSFSVPDPELIKTVTINASSSRSGLDDINPTVLLKERSTEL
In general, Km refers to the substrate concentration at which the rate is half of its maximum. For B1, the Km worked out at 17.7 ± 1.9 µM.
